In paper PMC6290019 (2018):

Key:
[1] = molecular target: T1, Im^des7; test: SPR; two-state reaction fit, koff2
T1 chain: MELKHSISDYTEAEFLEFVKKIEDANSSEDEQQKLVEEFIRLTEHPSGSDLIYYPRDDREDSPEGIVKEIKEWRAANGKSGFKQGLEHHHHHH

[2] = molecular target: T1, Im^des7; test: SPR; two-state reaction fit, koff1
[3] = molecular target: colE of designed pair 5 (cognate colE of Im^des5); test: SPR; two-state reaction fit, koff2
[4] = molecular target: colE of designed pair 5 (cognate colE of Im^des5); test: SPR; two-state reaction fit
[5] = molecular target: colE of designed pair 5 (cognate colE of Im^des5); test: SPR; two-state reaction fit, koff1
[6] = molecular target: colE^des2; test: SPR
[7] = molecular target: T2, Im^wt2 (Escherichia coli, UniProt P04482 1-86); test: SPR
T2 chain: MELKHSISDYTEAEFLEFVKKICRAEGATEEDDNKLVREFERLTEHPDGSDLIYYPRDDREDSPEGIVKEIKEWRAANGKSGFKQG

[8] = molecular target: T2, Im^wt2; test: SPR
[9] = molecular target: T2, Im^wt2; test: value from previous stopped-flow measurements
[10] = molecular target: colE^des8; test: SPR
[11] = molecular target: T3, Im^des3; test: SPR
T3 chain: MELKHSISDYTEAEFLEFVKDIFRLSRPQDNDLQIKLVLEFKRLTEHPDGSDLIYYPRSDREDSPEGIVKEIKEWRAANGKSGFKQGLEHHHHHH

[12] = molecular target: T4, Im^des8; test: SPR
T4 chain: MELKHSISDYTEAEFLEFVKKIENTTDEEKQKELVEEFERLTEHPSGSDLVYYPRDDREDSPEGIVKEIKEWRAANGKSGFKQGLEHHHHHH

[13] = molecular target: T2, Im^wt2; test: SPR
[14] = molecular target: colE^des1; test: SPR
[15] = molecular target: colE of designed pair 6 (cognate colE of Im^des6); test: SPR; two-state reaction fit, koff2
[16] = molecular target: colE of designed pair 6 (cognate colE of Im^des6); test: SPR; two-state reaction fit
[17] = molecular target: colE of designed pair 6 (cognate colE of Im^des6); test: SPR; two-state reaction fit, koff1

B1: colE^des7 (designed binder)
chain: MESKRNKPGKATGKGKPVGDKWLDDAGKDSGAPIPDRIADKLRDKEFKNFDDFRKKFWEEVSKDPDLAKQFKRSNRKRIQQGYAPFAPQKDQVGGRTTFELHHDKPISQDGGVYDMNNIRVTTPKRAIDIHRGK
Question: B1 was tested. Which koff [1] did it give?
Answer: 0.0014 s⁻¹

Question: What about the koff [2] of the same binder?
Answer: 0.014 s⁻¹

B2: Im^des5 (designed binder)
chain: MELKHSISDYTEAEFLEFVKKICNTDNENVQFKLVTEFERLTEHPDGSDLIYYPRDDREDSPEGIVKEIKEWRAANGKSGFKQGLEHHHHHH
Question: Which results are given for B2?
Answer: koff [3]: 0.0011 s⁻¹; Kd [4]: 35 nM; koff [5]: 0.023 s⁻¹

B3: Im^des2 (designed binder)
chain: MELKHSISDYTEAEFLEFVKKIYNSTDEEKQKELVTEFERLTEHPSGSDLIYYPRDDREDSPEGIVKEIKEWRAANGKSGFKQGLEHHHHHH
Question: Which results are given for B3?
Answer: Kd [6]: 0.32 nM; koff [6]: 0.00041 s⁻¹

B4: colE^wt2 (His127Ala) (enzyme)
chain: MESKRNKPGKATGKGKPVGDKWLDDAGKDSGAPIPDRIADKLRDKEFKNFDDFRKKFWEEVSKDPDLSKQFKGSNKTNIQKGKAPFARKKDQVGGRERFELHHDKPISQDGGVYDMNNIRVTTPKRAIDIHRGK
Question: What does the source list for B4?
Answer: koff [7]: 0.00016 s⁻¹; Kd [8]: < 0.1 nM; Kd [9]: 0.004 pM

B5: Im^des4 (designed binder)
chain: MELKHSISDYTEAEFLEFVKKIDLASSGGGGNELLSRALVEEFERLTEHPDGSDLIYYPRDDREDSPEGIVKEIKEWRAANGKSGFKQGLEHHHHHH
Question: How did the Kd [10] turn out when B5 was run?
Answer: > 100 µM

B6: colE^des3 (designed binder)
chain: MESKRNKPGKATGKGKPVGDKWLDDAGKDSGAPIPDRIADKLRDKEFKNFDDFRKKFWKEVAKDPDLAKQFSKANQRNIKDGNAPFARESDQVGGRTTYELHHDKPISQDGGVYDMNNIRVTTPKRAIDIHRGK
Question: For B6, which koff [11] is on record?
Answer: 0.019 s⁻¹

Question: And the Kd [12]?
Answer: > 100 µM

Question: What about the Kd [13] of the same binder?
Answer: > 100 µM

B7: Im^des1 (designed binder)
chain: MELKHSISDYTEAEFLEFVKKIYSKGKLDQKLRWVEEFVRLTEHPSGSDLIYYPRDDREDSPEGIVKEIKEWRAANGKSGFKQGLEHHHHHH
Question: B7 was tested. Which koff [14] did it give?
Answer: 0.00033 s⁻¹

B8: Im^des6 (designed binder)
chain: MELKHSISDYTEAEFLEFVKKIFSQGRLEETRPLVEEFERLTEHPDGSDLVYYPRDDREDSPEGIVKEIKEWRAANGKSGFKQGLEHHHHHH
Question: B8 was tested. Which koff [15] did it give?
Answer: 0.00026 s⁻¹

Question: And the Kd [16]?
Answer: 161 nM

Question: And the koff [17]?
Answer: 0.29 s⁻¹
